In patent US20240293499A1 (SUNNYBROOK RESEARCH INSTITUTE, published 2024):

What was measured:
[1] = biological target: T1, murine VISTA (mVISTA), recombinant; form not stated (mouse, UniProt Q9D659 33-191, limits assumed); assay: SPR single-cycle kinetics (FIG. 8)
T1 construct: The SPR method names only hVISTA-Fc as analyte for the nanobodies; also called mouse VISTA
T1 sequence (looked up): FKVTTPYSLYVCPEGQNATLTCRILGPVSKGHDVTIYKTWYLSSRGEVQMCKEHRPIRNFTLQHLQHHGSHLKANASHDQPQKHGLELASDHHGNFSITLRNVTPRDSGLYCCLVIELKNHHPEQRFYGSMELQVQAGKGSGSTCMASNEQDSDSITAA

[2] = biological target: T2, hVISTA-Fc (produced in house) (human, UniProt Q9H7M9 33-194, limits assumed); assay: SPR (BIAcore T200), single-cycle kinetics, Nb captured on anti-His chip, hVISTA-Fc injected at 1.9, 3.8, 7.5, 15, 30 nM, 1:1 fit
T2 construct: Analyte in the SPR of the nanobodies; not shown: Fc
T2 sequence (looked up): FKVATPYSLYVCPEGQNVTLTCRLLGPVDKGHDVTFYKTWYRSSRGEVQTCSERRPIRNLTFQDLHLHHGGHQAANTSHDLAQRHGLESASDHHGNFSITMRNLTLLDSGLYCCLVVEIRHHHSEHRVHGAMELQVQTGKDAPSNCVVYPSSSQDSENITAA
Procedure: Binding kinetics of mAbs and Nbs to hVISTA and mVISTA were obtained by surface plasmon resonance (SPR) using a BIAcore T200 (Cytiva) and HBS running buffer (20 mM of HEPES pH 7.4, 150 mM NaCl, 0.005% Tween-20, 3.4 mM EDTA). Briefly, anti-histidine antibodies were immobilized on a CM5 chip (29149604; Cytiva) using the His capture kit (28995056; Cytiva) following manufacture's protocol. For mAbs, VISTA was captured by flowing […] of hVISTA-COMP-his or mVISTA-COMP-his at a flow rate of 30 μL/min. Sensorgrams were collected using single-cycle kinetics covering five mAb concentrations (1:2 serial dilutions). For Nbs, solutions of each nanobody ([…]) were flown over an anti-histidine-coated chip. Five concentrations (1:2 serial dilutions) of hVISTA-Fc (produced in house) were then injected at a flow rate of 30 μL/min. KD, Kₒₙ, and Koff were calculated by analyzing the sensorgrams with a 1:1 Langmuir binding model²³ after subtracting reference sensorgrams.

[3] = biological target: T3, human VISTA on primary human immune cells (CD14+CD16- classical monocytes of PBMCs) (human, UniProt Q9H7M9 33-311); assay: flow cytometry on human PBMC, gate CD14+CD16- monocytes, ΔMFI against control, 5 donors
T3 construct: whole, on cells; Native protein on donor cells; also called hVISTA
T3 sequence (looked up): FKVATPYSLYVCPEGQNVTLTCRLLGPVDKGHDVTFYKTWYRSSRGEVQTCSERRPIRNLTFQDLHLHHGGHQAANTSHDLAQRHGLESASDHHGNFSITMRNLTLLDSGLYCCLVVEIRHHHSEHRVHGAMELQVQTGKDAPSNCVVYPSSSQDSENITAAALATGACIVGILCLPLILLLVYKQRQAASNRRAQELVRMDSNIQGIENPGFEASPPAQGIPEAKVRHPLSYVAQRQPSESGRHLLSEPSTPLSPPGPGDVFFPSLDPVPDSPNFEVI
Procedure: PBMCs had their Fc receptors blocked with Human TruStain FcX (422301; BioLegend) then incubated with 2.5 μg of mAb, mouse IgG1 (401408; BioLegend), or rat IgG2a (400565; BioLegend) or 15 μg Nb for 1 hour at 4° C. After washing with PBS, the PBMCs were incubated with secondary antibodies (1 μL; FITC anti-mouse IgG1, FITC anti-HA, or FITC anti-rat IgG2a; 406605, 901507, or MRG2a-83; BioLegend) or control FITC anti-VISTA antibodies (clone B7H5DS8; 11-1088-42; eBioscience) for 40 minutes at 4° C. A staining cocktail consisting of PE/Cy5 anti-CD11b (101210; BioLegend), APC/Cy7 anti-CD14 (325620; BioLegend), Alexa Flour 700 anti-CD16 (302026; BioLegend), PE/Cy7 anti-CD4 (317414; BioLegend), and Alexa Flour 647 anti-CD8 (301022; BioLegend) was then added to the PBMCs and incubated for 20 minutes at 4° C. Finally, the PBMCs were washed and resuspended in 3 μM DAPI (D1306; Thermo Fisher Scientific) and cytometric profiles recorded using a BD LSR II flow cytometer (BD) maintained by The Centre for Flow Cytometry & Scanning Microscopy (CCSM) at Sunnybrook Research Institute (SRI; Sunnybrook Health Sciences Centre, Toronto, ON, Canada). The same protocol was performed on murine splenocytes to measure the binding of rat anti-hmVISTA mAbs to murine immune cells.

B1: anti-hVISTA nanobody hVISTANb7 (VHH)
VHH: QVQLQESGGGLVYPGGSLRLSCTASGFAFTNAYMNWVRQAPGKGAEWVSGITRDSNRTSYADSVKGRFTISRDNAKNTLYLQMDSLKSDDTALYYCNAEPSGWWLDDDYWGQGTQVTVSS
notes: Llama nanobody made in E. coli WK6; not shown: HA tag and His tag (pMECS vector; purified on a His-Trap column, detected with anti-HA)
binding result [1]: no binding | Kd [2]: 7.5 nM | binding result [3]: binds
